According to patent publication US20130123347, “FRACTALKINE BINDING POLYNUCLEOTIDES AND METHODS OF USE” (published 2013):

T1: CXCL16 (UniProt Q9H2A7 Q9H2A7:30-118)
T1 sequence: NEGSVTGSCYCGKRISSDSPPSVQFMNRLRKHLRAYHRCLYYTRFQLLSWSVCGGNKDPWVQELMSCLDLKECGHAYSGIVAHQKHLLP

B1: 5',3' 10T FKN-S2 Aptamer (ssDNA)
DNA: TTTTTTTTTTGGGGTGGGTGGGGGGCACGTGTGGGGGCGGCCAGGGTGCTTTTTTTTTTT

biological target: T2, fractalkine (CX3CL1) (Homo sapiens, UniProt P78423 P78423:25-339); test: filter; 1-10 nM aptamer; PBS pH 7.4, BSA, poly dA:dT; settings: tags: C-terminal polyhistidine; chemokine domain + mucin-like stalk; R&D Systems 365-FR-025; label: 32P
T2 sequence (P78423 25-339, one chain of several): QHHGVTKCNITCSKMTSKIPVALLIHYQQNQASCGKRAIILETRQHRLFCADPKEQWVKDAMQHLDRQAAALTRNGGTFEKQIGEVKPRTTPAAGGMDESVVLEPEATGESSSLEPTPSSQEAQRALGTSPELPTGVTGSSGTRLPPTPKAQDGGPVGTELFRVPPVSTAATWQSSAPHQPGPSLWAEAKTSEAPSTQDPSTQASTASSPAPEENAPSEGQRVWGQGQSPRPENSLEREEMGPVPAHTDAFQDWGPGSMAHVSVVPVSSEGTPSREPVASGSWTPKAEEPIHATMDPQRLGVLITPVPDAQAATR
Protocol: Anti-fractalkine Antibody Blocking Assay. Unlabeled FKN-S2 and scrambled FKN-S2 aptamer (sequence 5′-[…] […], SEQ ID NO:7) were diluted to 10 nM in binding buffer (PBS with 50 μg/mL BSA and 2.5 μg/mL Poly (dA:dT); pH 7.4). Approximately 75,000 cpm/well of radio-labeled aptamer was added and the samples were diluted to 5 and 1 nM. Each dilution was heat denatured and snap cooled. Full length fractalkine was diluted to 0.25 nM and approximately 100 nM of anti-chemokine domain antibody (FKN Ab) was added and allowed to bind for 30 minutes at room temperature. The aptamer was added to the protein solution and incubated at room temperature for 30 minutes. Bound aptamer was collected by filtering the samples thorough at nitrocellulose membrane and signal captured with a phosphor film and imaged. The background binding signal was removed from the FKN and FKN Ab+FKN samples by subtracting the signal from a well containing an identical concentration of BSA without FKN or FKN Ab. Binding was quantified using ImageJ.

GTTGGGATGAGGGTGGGCGGGCGCGGCGGCTGGGGGTCGG (ssDNA) [scrambled FKN-S2]: no binding.

biological target: CCL8 (UniProt P80075 P80075:24-99); test: filter; 0.2 nM protein; PBS pH 7.4, room temp; settings: tags: PeproTech 300-15; label: 5' 32P; parallel G-quartet and B-form features by CD
Sequence (P80075 24-99, one chain of several): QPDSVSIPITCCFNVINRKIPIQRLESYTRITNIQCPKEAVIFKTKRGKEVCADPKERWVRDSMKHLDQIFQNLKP
Protocol: (§1) FKN-S2 was labeled with γ-³²P ATP using a T4 polynucleotide kinase as described in the FKN-S2 Aptamer Homologous Competitive Binding Assay section. Unlabeled FKN-S2 aptamer and 10⁶ counts per minute of radiolabeled FKN-S2 aptamer were mixed in binding buffer (PBS with 50 μg/mL BSA and 2.5 μg/mL Poly (dA:dT); pH 7.4) and the aptamer was denatured at 95° C. for 5 minutes followed by snap cooling in ice water for 5 minutes. The aptamer was then serial diluted in binding buffer and the dilutions added to full length fractalkine, heat-denatured fractalkine and chemokines CCL8 (PeproTech Catalog Number 300-15) and CXCL16 (PeproTech Catalog Number 300-55). All proteins were at a concentration of 0.2 nM. Fractalkine was denatured by heating to 95° C. for 10 minutes followed by incubation on ice until use. The aptamer and protein were incubated for 1 hour at room temperature. Bound aptamer was collected by filtering the samples thorough at nitrocellulose membrane and signal captured with a phosphor film and imaged. The background was measured from wells containing an identical concentration of BSA without the protein. Binding was quantified using ImageJ. […] The binding that was seen may be due to incomplete denaturing or refolding of fractalkine during the experiment.

GGGGTGGGTGGGGGGCACGTGTGGGGGCGGCCAGGGTGCT (ssDNA) [FKN-S2]: no binding.

biological target: T1, CXCL16; test: filter; 0.2 nM protein; PBS pH 7.4, room temp; settings: tags: PeproTech 300-55; label: 5' 32P; parallel G-quartet and B-form features by CD
Protocol: as §1

GGGGTGGGTGGGGGGCACGTGTGGGGGCGGCCAGGGTGCT (ssDNA) [FKN-S2]: no binding.

biological target: T2, fractalkine (CX3CL1); test: competition; vs radiolabeled FKN-S2, 0.1 nM FKN, PBS; settings: tags: C-terminal polyhistidine; chemokine domain + mucin-like stalk; R&D Systems 365-FR-025
Protocol: (§2) IC₅₀ Binding Assay. FKN-S2 aptamer was labeled on the 5′ end with a radioactive phosphorous (³²P) using a T4 kinase. Unlabeled aptamer amphiphile was serially diluted in binding buffer composed of PBS with BSA, Poly(dA:dT) and radio-labeled FKN-S2 (generally less than 0.05 nM; ≈20,000 count per minute per well) and unlabeled FKN-S2 (1 nM). This ensured each aptamer dilution contained an identical concentration of FKN-S2. Fractalkine (0.1 nM) or BSA was added to each dilution and the aptamer was allowed to bind for 1 hour at room temperature. Each solution was then filtered though a nitrocellulose membrane where the fractalkine:aptamer complex was captured and non-bound aptamer was removed by washing the membrane three times with PBS. The membrane was then exposed to a phosphor film overnight and imaged. The binding was quantified using imageJ and the data fit to a binding equation to determine the IC₅₀.
Effect of the Spacer on Binding Affinity. […] Radiolabeled FKN-S2 aptamer and unlabeled aptamer-amphiphile were incubated with fractalkine for 1 hour and the aptamer:fractalkine complex collected by filtration through a nitrocellulose membrane. The concentration at which 50% of the aptamer is displaced by the unlabeled competitor is the IC₅₀ value.

Point of comparison: GGGGTGGGTGGGGGGCACGTGTGGGGGCGGCCAGGGTGCTAAAAAAAAAA (ssDNA, 3' C16 dialkyl tail) [3' 10A FKN-S2 Amphiphile], IC50 24.8 nM. Against it:
- GGGGTGGGTGGGGGGCACGTGTGGGGGCGGCCAGGGTGCT (ssDNA, 3' PEG24 spacer + C16 dialkyl tail) [3' PEG24 FKN-S2 Amphiphile] — 2-fold higher, 49.6 nM
- GGGGTGGGTGGGGGGCACGTGTGGGGGCGGCCAGGGTGCT (ssDNA, 3' C6 amino-linked C16 dialkyl tail) [3' No Spacer FKN-S2 Amphiphile] — 2.6-fold higher, 65.7 nM
- GGGGTGGGTGGGGGGCACGTGTGGGGGCGGCCAGGGTGCT (ssDNA, 3' C12 spacer + C16 dialkyl tail) [3' C12 FKN-S2 Amphiphile] — 3-fold higher, 75.6 nM
- GGGGTGGGTGGGGGGCACGTGTGGGGGCGGCCAGGGTGCT (ssDNA, 5' C6 amino-linked C16 dialkyl tail) [5' No Spacer FKN-S2 Amphiphile] — 3.3-fold higher, 81.6 nM
- GGGGTGGGTGGGGGGCACGTGTGGGGGCGGCCAGGGTGCT (ssDNA, 3' PEG4 spacer + C16 dialkyl tail) [3' PEG4 FKN-S2 Amphiphile] — 2.8-fold higher, 68.6 nM
- GGGGTGGGTGGGGGGCACGTGTGGGGGCGGCCAGGGTGCT (ssDNA, 3' C24 spacer + C16 dialkyl tail) [3' C24 FKN-S2 Amphiphile] — 3-fold higher, 73.5 nM
- GGGGTGGGTGGGGGGCACGTGTGGGGGCGGCCAGGGTGCT (ssDNA, 3' PEG8 spacer + C16 dialkyl tail) [3' PEG8 FKN-S2 Amphiphile] — 1.9-fold higher, 47.5 nM
- TTTTTTTTTTGGGGTGGGTGGGGGGCACGTGTGGGGGCGGCCAGGGTGCT (ssDNA, 5' C16 dialkyl tail) [5' 10T FKN-S2 Amphiphile] — 2.2-fold higher, 55.1 nM
- GGGGTGGGTGGGGGGCACGTGTGGGGGCGGCCAGGGTGCTTTTTTTTTTT (ssDNA, 3' C16 dialkyl tail) [3' 10T FKN-S2 Amphiphile] — within 1.5-fold, 21.8 nM
- GGGGTGGGTGGGGGGCACGTGTGGGGGCGGCCAGGGTGCTTTTTT (ssDNA, 3' C16 dialkyl tail) [3' 5T FKN-S2 Amphiphile] — 1.5-fold higher, 37.6 nM

biological target: T2, fractalkine (CX3CL1); test: competition; vs radiolabeled FKN-S2; settings: tags: C-terminal polyhistidine; chemokine domain + mucin-like stalk; R&D Systems 365-FR-025
Protocol: FKN-S2 contains 40 nucleotides and we investigated if truncation of the aptamer would result in sequences with similar affinity to fractalkine but with fewer nucleotides. Three truncated versions of the FKN-S2 aptamer were synthesized with five nucleotides removed from the 5′ end (FKN-S2a), five from the 3′ end (FKN-S2b) and five from each end (FKN-S2c). Additionally, a random 40-mer (5′-[…] (SEQ ID NO:4)) was used as a control. The relative affinities of the truncated aptamers were tested using a heterogeneous competition assay with radiolabeled full length FKN-S2 (FIG. 4). IC₅₀ values (the concentration of 50% reduction in binding) were determined by non-linear regression fitting of the data to the binding equation given in herein and the values are shown in Table 1.
Truncated FKN-S2 Aptamer Competitive Binding Assay. […] 1 nM of unlabeled FKN-S2 and 5,000 cpm/μL (counts per minute/μL) of radio-labeled full length FKN-S2 were heat denatured and snap cooled before addition to either fractalkine or a BSA control at a concentration of 0.1 nM and incubated for 1 hour at room temperature. The solutions were filtered through a nitrocellulose membrane and exposed to a storage phosphor film overnight and imaged. The binding was quantified using ImageJ and the Dot Blot Analyzer plug-in. Data was fit using the non-linear regression program Origin 8 to the equation

Point of comparison: GGGGTGGGTGGGGGGCACGTGTGGGGGCGGCCAGG (ssDNA) [FKN-S2b], IC50 5410 nM. Against it:
- CTATCGGCGACATGAACTTTGGCAAGGGCATCTGGTCCAT (ssDNA) [random 40-mer] — higher, > 100000 nM
- GGGTGGGGGGCACGTGTGGGGGCGGCCAGG (ssDNA) [FKN-S2c] — higher, > 100000 nM

biological target: T2, fractalkine (CX3CL1); test: competition; vs radiolabeled FKN-S2; settings: tags: C-terminal polyhistidine; chemokine domain + mucin-like stalk; R&D Systems 365-FR-025; remark: another data set of the same source
Protocol: as §2
We hypothesized that the improvement in affinity of the 3′ 10T FKN-S2 amphiphile may be due either to a spacer effect, where the spacer increases the distance between the aptamer and the tail, or due to an improvement in the affinity of the aptamer itself. To investigate the effect of the 10T spacer on the aptamer affinity, we measured the IC₅₀ values of the FKN-S2 aptamer with different nucleotide spacers (Table 3).

Point of comparison: B1, IC50 2.7 nM. Against it:
- TTTTTTTTTTGGGGTGGGTGGGGGGCACGTGTGGGGGCGGCCAGGGTGCT (ssDNA) [5' 10T FKN-S2 Aptamer] — 3.2-fold higher, 8.7 nM
- GGGGTGGGTGGGGGGCACGTGTGGGGGCGGCCAGGGTGCTTTTTTTTTTT (ssDNA) [3' 10T FKN-S2 Aptamer] — within 1.5-fold, 3.6 nM
- GGGGTGGGTGGGGGGCACGTGTGGGGGCGGCCAGGGTGCTT (ssDNA) [3' 1T FKN-S2 Aptamer] — 3.4-fold higher, 9.2 nM
- GGGGTGGGTGGGGGGCACGTGTGGGGGCGGCCAGGGTGCTTTTTT (ssDNA) [3' 5T FKN-S2 Aptamer] — within 1.5-fold, 3.4 nM

biological target: T2, fractalkine (CX3CL1); test: competition; vs radiolabeled FKN-S2, filter binding, PBS pH 7.4; Table 2 gives 8.6±0.3 nM (n=9); settings: tags: C-terminal polyhistidine; chemokine domain + mucin-like stalk; R&D Systems 365-FR-025; label: 5' 32P; parallel G-quartet and B-form features by CD

In the case of GGGGTGGGTGGGGGGCACGTGTGGGGGCGGCCAGGGTGCT (ssDNA) [FKN-S2], the IC50 is reported as 9.5 nM.

biological target: T2, fractalkine (CX3CL1); test: filter; homologous competition; 25 pM FKN, PBS pH 7.4, poly dA:dT, BSA, room temp; settings: tags: C-terminal polyhistidine; chemokine domain + mucin-like stalk; R&D Systems 365-FR-025; label: 5' 32P; parallel G-quartet and B-form features by CD
Protocol: The dissociation constant of FKN-S2 for fractalkine was determined using a radioactive homologous competition filter binding assay. Dilutions of unlabeled FKN-S2 aptamer were mixed with a constant concentration of ³²P ATP labeled FKN-S2. The dilutions were then incubated with 25 pM fractalkine for 1 hour at room temperature. […] Bound aptamer was collected by filtration through a nitrocellulose membrane and the dissociation constant determined by non-linear regression analysis.
All binding experiments occurred in binding buffer composed of PBS with 0.5 μg/mL poly dA:dT and 50 μg/mL bovine serum albumin (BSA), pH 7.4. Unlabeled full length FKN-S2 aptamer was diluted in binding buffer and a constant concentration of radiolabeled full length FKN-S2 aptamer added to each dilution. Full length fractalkine or an equivalent concentration of BSA was diluted in binding buffer to 50 pM. Aptamer and fractalkine/BSA was incubated for 1 hour at room temperature. Following incubation, samples were filtered through a nitrocellulose membrane using a bio-rad dot blot apparatus. Each well was washed 3 times with 200 μL of PBS to remove unbound aptamer. The membrane was dried and exposed to a storage phosphor screen overnight and imaged (Packard Cyclone). Binding was quantified using ImageJ and the Dot Blot Analyzer plug-in. The data was fit to the following equation

Work on GGGGTGGGTGGGGGGCACGTGTGGGGGCGGCCAGGGTGCT (ssDNA) [FKN-S2] yielded a Kd of 3.4 nM.
